Source: patent US20110045604A1 (UNIVERSITY OF CHICAGO, published 2011)
Blank lines part the entries; values can stand above or below the binder they belong to.

Biological target: T1, Erbin PDZ (UniProt Q96RT1 1321-1410, limits assumed)
T1 construct: domain: PDZ; Isolated PDZ domain without FN3; Expressed in E. coli from a pHFT2 derivative; also called wild-type PDZ domain; parent PDZ
Experiment: SPR (BIAcore 2000); PDZ immobilised on Ni-NTA chip, SUMO-peptide fusion as analyte
Experimental: Affinity Measurements. SPR measurements were performed in 20 mM HEPES/NaOH buffer (pH 7.4), 150 mM NaCl, and 0.005% Tween 20 at 25° C. on a BIAcore 2000 instrument. The affinity clamp or the linker mutant was immobilized on a Ni-NTA chip to the level of approximate 300 RU, and different concentrations of SUMO-peptide fusion protein were injected. The kinetic data were analyzed using the one-to-one binding model in BIAEvaluation (BIAcore).

T1 sequence (Q96RT1 1321-1410 limits assumed): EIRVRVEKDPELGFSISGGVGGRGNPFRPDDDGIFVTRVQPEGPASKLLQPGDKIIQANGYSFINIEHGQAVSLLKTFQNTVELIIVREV

Kd: 6.3 µM
B1: SUMO-δ-catenin peptide fusion protein (peptide)
peptide: {yeast SUMO}-PASPDSWV-OH
modifications: not fully specified
notes: The methods say that SUMO-peptide fusion proteins were injected in SPR; also called C-terminus of δ-catenin; not shown: The yeast SUMO fusion partner N-terminal to the peptide, and any junction or tag residues

Kd: 2.2 µM
B2: SUMO-ARVCF peptide fusion protein (peptide)
chain: PQPVDSWV
notes: Analyte in SPR; also called wild-type ARVCF peptide; AVFCF peptide; not shown: yeast SUMO, fusion partner N-terminal to the peptide
